Laboratory results as given in the Human Domainome abundance scans (Beltran et al. 2025).
± gives the uncertainty stated by the source.

B1: Homeobox protein cut-like 1, residues 548 to 629; numbered along this chain, P39880 (parent)
chain: GEEMDTAEIARQVKEQLIKHNIGQRIFGHYVLGLSQGSVSEILARPKPWNKLTVRGKEPFHKMKQFLSDEQNILALRSIQGR

Variants of: B1
Test: abundance fitness (aPCA) (normalised: wild type 0, dead -1); higher = more abundant; growth selection in yeast, the domain comes from the species named
Conditions: Homo sapiens

| Variant | abundance fitness |
| --- | --- |
| GEESDTAEIARQVKEQLIKHNIGQRIFGHYVLGLSQGSVSEILARPKPWNKLTVRGKEPFHKMKQFLSDEQNILALRSIQGR | -0.355 ± 0.035 |
| GEEKDTAEIARQVKEQLIKHNIGQRIFGHYVLGLSQGSVSEILARPKPWNKLTVRGKEPFHKMKQFLSDEQNILALRSIQGR | -0.36 ± 0.039 |
| GEEWDTAEIARQVKEQLIKHNIGQRIFGHYVLGLSQGSVSEILARPKPWNKLTVRGKEPFHKMKQFLSDEQNILALRSIQGR | -0.23 ± 0.034 |
| GEEPDTAEIARQVKEQLIKHNIGQRIFGHYVLGLSQGSVSEILARPKPWNKLTVRGKEPFHKMKQFLSDEQNILALRSIQGR | -0.318 ± 0.05 |
| GEEMNTAEIARQVKEQLIKHNIGQRIFGHYVLGLSQGSVSEILARPKPWNKLTVRGKEPFHKMKQFLSDEQNILALRSIQGR | -0.076 ± 0.045 |
| GEEMYTAEIARQVKEQLIKHNIGQRIFGHYVLGLSQGSVSEILARPKPWNKLTVRGKEPFHKMKQFLSDEQNILALRSIQGR | -0.561 ± 0.095 |
| GEEMLTAEIARQVKEQLIKHNIGQRIFGHYVLGLSQGSVSEILARPKPWNKLTVRGKEPFHKMKQFLSDEQNILALRSIQGR | -0.817 ± 0.053 |
| GEEMKTAEIARQVKEQLIKHNIGQRIFGHYVLGLSQGSVSEILARPKPWNKLTVRGKEPFHKMKQFLSDEQNILALRSIQGR | -0.274 ± 0.04 |
| GEEMFTAEIARQVKEQLIKHNIGQRIFGHYVLGLSQGSVSEILARPKPWNKLTVRGKEPFHKMKQFLSDEQNILALRSIQGR | -0.644 ± 0.11 |
| GEEMITAEIARQVKEQLIKHNIGQRIFGHYVLGLSQGSVSEILARPKPWNKLTVRGKEPFHKMKQFLSDEQNILALRSIQGR | -0.689 ± 0.1 |
| GEEMATAEIARQVKEQLIKHNIGQRIFGHYVLGLSQGSVSEILARPKPWNKLTVRGKEPFHKMKQFLSDEQNILALRSIQGR | -0.204 ± 0.029 |
| GEEMPTAEIARQVKEQLIKHNIGQRIFGHYVLGLSQGSVSEILARPKPWNKLTVRGKEPFHKMKQFLSDEQNILALRSIQGR | -0.269 ± 0.043 |
| GEEMTTAEIARQVKEQLIKHNIGQRIFGHYVLGLSQGSVSEILARPKPWNKLTVRGKEPFHKMKQFLSDEQNILALRSIQGR | -0.006 ± 0.041 |
| GEEMHTAEIARQVKEQLIKHNIGQRIFGHYVLGLSQGSVSEILARPKPWNKLTVRGKEPFHKMKQFLSDEQNILALRSIQGR | -0.294 ± 0.067 |
| GEEMMTAEIARQVKEQLIKHNIGQRIFGHYVLGLSQGSVSEILARPKPWNKLTVRGKEPFHKMKQFLSDEQNILALRSIQGR | -0.638 ± 0.062 |
| GEEMQTAEIARQVKEQLIKHNIGQRIFGHYVLGLSQGSVSEILARPKPWNKLTVRGKEPFHKMKQFLSDEQNILALRSIQGR | -0.226 ± 0.037 |
| GEEMETAEIARQVKEQLIKHNIGQRIFGHYVLGLSQGSVSEILARPKPWNKLTVRGKEPFHKMKQFLSDEQNILALRSIQGR | -0.163 ± 0.03 |

| Variant | abundance fitness |
| --- | --- |
| GEEMVTAEIARQVKEQLIKHNIGQRIFGHYVLGLSQGSVSEILARPKPWNKLTVRGKEPFHKMKQFLSDEQNILALRSIQGR | -0.537 ± 0.035 |
| GEEMSTAEIARQVKEQLIKHNIGQRIFGHYVLGLSQGSVSEILARPKPWNKLTVRGKEPFHKMKQFLSDEQNILALRSIQGR | -0.082 ± 0.032 |
| GEEMWTAEIARQVKEQLIKHNIGQRIFGHYVLGLSQGSVSEILARPKPWNKLTVRGKEPFHKMKQFLSDEQNILALRSIQGR | -0.782 ± 0.052 |
| GEEMRTAEIARQVKEQLIKHNIGQRIFGHYVLGLSQGSVSEILARPKPWNKLTVRGKEPFHKMKQFLSDEQNILALRSIQGR | -0.541 ± 0.028 |
| GEEMGTAEIARQVKEQLIKHNIGQRIFGHYVLGLSQGSVSEILARPKPWNKLTVRGKEPFHKMKQFLSDEQNILALRSIQGR | -0.395 ± 0.026 |
| GEEMDAAEIARQVKEQLIKHNIGQRIFGHYVLGLSQGSVSEILARPKPWNKLTVRGKEPFHKMKQFLSDEQNILALRSIQGR | -0.697 ± 0.042 |
| GKEMDTAEIARQVKEQLIKHNIGQRIFGHYVLGLSQGSVSEILARPKPWNKLTVRGKEPFHKMKQFLSDEQNILALRSIQGR | -0.116 ± 0.039 |
| GWEMDTAEIARQVKEQLIKHNIGQRIFGHYVLGLSQGSVSEILARPKPWNKLTVRGKEPFHKMKQFLSDEQNILALRSIQGR | -0.202 ± 0.036 |
| GPEMDTAEIARQVKEQLIKHNIGQRIFGHYVLGLSQGSVSEILARPKPWNKLTVRGKEPFHKMKQFLSDEQNILALRSIQGR | -0.478 ± 0.052 |
| GIEMDTAEIARQVKEQLIKHNIGQRIFGHYVLGLSQGSVSEILARPKPWNKLTVRGKEPFHKMKQFLSDEQNILALRSIQGR | -0.261 ± 0.11 |
| GLEMDTAEIARQVKEQLIKHNIGQRIFGHYVLGLSQGSVSEILARPKPWNKLTVRGKEPFHKMKQFLSDEQNILALRSIQGR | -0.193 ± 0.036 |
| GREMDTAEIARQVKEQLIKHNIGQRIFGHYVLGLSQGSVSEILARPKPWNKLTVRGKEPFHKMKQFLSDEQNILALRSIQGR | -0.188 ± 0.027 |
| GVEMDTAEIARQVKEQLIKHNIGQRIFGHYVLGLSQGSVSEILARPKPWNKLTVRGKEPFHKMKQFLSDEQNILALRSIQGR | -0.17 ± 0.028 |
| GSEMDTAEIARQVKEQLIKHNIGQRIFGHYVLGLSQGSVSEILARPKPWNKLTVRGKEPFHKMKQFLSDEQNILALRSIQGR | -0.087 ± 0.037 |
| GQEMDTAEIARQVKEQLIKHNIGQRIFGHYVLGLSQGSVSEILARPKPWNKLTVRGKEPFHKMKQFLSDEQNILALRSIQGR | -0.126 ± 0.04 |
| GYEMDTAEIARQVKEQLIKHNIGQRIFGHYVLGLSQGSVSEILARPKPWNKLTVRGKEPFHKMKQFLSDEQNILALRSIQGR | -0.175 ± 0.066 |
| GTEMDTAEIARQVKEQLIKHNIGQRIFGHYVLGLSQGSVSEILARPKPWNKLTVRGKEPFHKMKQFLSDEQNILALRSIQGR | -0.117 ± 0.038 |
